# Measurements from patent publication US20180125934A1 (Stanford University, published 2018).
# Assays:
# [1] = biological target: T1, human PD-L1-Fc chimeric protein (human, UniProt Q9NZQ7 19-238); experiment: flow cytometry of yeast-displayed clone with soluble PD-L1-Fc (S5.1 tested at 0.5 nM only, see paragraph 221)
# T1 construct: extracellular domain; Recombinant protein; also called soluble PD-L1-Fc; not shown: Fc region of human IgG1, fused at the C-terminus
# Experimental: (§1) Binding was allowed to proceed for 3 hours at room temperature at which time yeast were pelleted, washed twice to remove unbound PD-L1-Fc, and stained with a fluorescently labeled secondary antibody to detect the Fc of bound PD-L1. Secondary labeling was performed for 30 minutes on ice, after which yeast were pelleted and washed as described. Yeast samples were then analyzed on a flow cytometer to quantify PD-L1-Fc binding.
# (§2) FIG. 4 provides a graph of the FACS data.
# [2] = biological target: T1, human PD-L1-Fc chimeric protein; experiment: flow cytometry of yeast-displayed clone, FIG. 2 (0.5 nM PD-L1-Fc) and FIG. 3 (5 nM, also bound strongly)
# Experimental: as §1, §2
# [3] = biological target: T1, human PD-L1-Fc chimeric protein; experiment: yeast display, clone sequenced from the pool after five FACS sorts on PD-L1-Fc; measured as a pool, not singly
# Experimental: In these sorts, yeast were incubated at room temperature in phosphate-buffered saline with 1 mg/ml BSA (PBSA) and with the following nominal concentrations of PD-L1-Fc: for sort 1, 250 nM; sort 2, 20 nM; sort 3, 1 nM; sort 4, 0.1 nM; sort 5, 0.1 nM. PD-L1 Fc refers to a human PD-L1-Fc chimeric protein. This recombinant protein contains the extracellular domain of human PD-L1 fused to the Fc region of human IgG1 at the C-terminus. After incubation with PD-L1-Fc, yeast were pelleted, washed, and resuspended in PBSA with chicken anti-cMYC for 1 hour at 4° C. After primary antibody incubation, yeast were once again washed and secondary labeling was performed on ice for 30 minutes using PBSA with goat anti-chicken Alexa Fluor 555 and goat anti-human IgG Alexa Fluor 488. Each sort was conducted such that the 1-3% of clones with the highest PD-L1 binding/cMyc expression ration were selected, thereby enriching the library for clones with the highest affinity. In the first round, 1×10⁸ cells were screened, and in subsequent rounds a minimum of ten-fold the number of clones collected in the prior sort round were screened to ensure adequate sampling of diversity.
# Samples were analyzed using a FACScalibur flow cytometer and data was analyzed using FlowJo software.
# [4] = biological target: T1, human PD-L1-Fc chimeric protein; experiment: flow cytometry of yeast-displayed clone with soluble PD-L1-Fc at 5 nM or 0.5 nM
# Experimental: as §1, §2
# T1 sequence (Q9NZQ7 19-238, change not shown): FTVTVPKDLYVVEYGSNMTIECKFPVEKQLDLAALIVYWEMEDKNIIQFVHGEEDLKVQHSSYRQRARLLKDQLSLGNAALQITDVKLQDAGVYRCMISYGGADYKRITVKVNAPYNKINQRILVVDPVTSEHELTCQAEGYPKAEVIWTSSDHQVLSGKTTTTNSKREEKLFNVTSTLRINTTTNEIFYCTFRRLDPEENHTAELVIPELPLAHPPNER
Binder,binding result [3],other results
"PD-1 variant polypeptide, clone S5.1 (receptor) NPPTFSPALLVVTEGDNATFTCSFSNTSESFVLNWYRMSPSNQTDKLAAFPEDRGQLGQDSRFRVTQLPNGRDFHMSVVRARRSDSGTYLCSAIVLAPKIQIKESLRVELRVTERRAE",–,binding result [1]: binds
"PD-1 variant polypeptide, clone S5.7 (receptor) NPPTFSPALLVVTEGDNATFTCSFSNTSESFVLNWYRMSPSNQTDKLAAFPEDRGQLGQDSRFRVTQLPNGRDFHMSVVRARRSDSGTYLCSAILLAPKIQIKESLRVELRVTERRAE",–,binding result [2]: binds
"PD-1 variant polypeptide, clone S5.1n (receptor) NPPTFSPALLVVTEGDNATFTCSFSNTSESFVLNWYRMSPSNQTDKLAAFPEDRSQPGQDSRFRVTQLPNGRDFHMSVVRARGDDSGTYLCGAISLAPKVQIKESLRVELRVTERRAE",binds,–
"PD-1 variant polypeptide, clone S5.1e (receptor) NPPTFSPALLVVTEGDNATFTCSFSNTSESFVLNWYRMSPSNQTDKLAAFPEDRSQPGQDSRFRVTQLPNGRDFHMSVVRARRSDSGTYLCGAISLAPKVQIKESLRAELRVIERRAE",binds,–
"PD-1 variant polypeptide, clone S5.2d (receptor) NPPTFSPALLVVTEGDNATFTCSFSNTSESFVLNWYRMSPSDQTDKLAAFPEDRSRPGQDSRFRVTQLPNGRDFHMSVVGARRNDSGTYLCGAISLAPKVQIRESLRAELRVTERRAE",binds,–
"PD-1 variant polypeptide, clone S5.1g (receptor) NPPTFSPALLVVTEGDNATFTCSFSNASESFVLNWYRMSPSDQTDKLAAFPEDRGQLGQDSRFRVTQLPNGRDFHMSVVRARRNDSGTYLCGAISLAPKIQIKESLRAELRVTERRAE",binds,–
"PD-1 variant polypeptide, clone S5.1c (receptor) NPPTFSPALLVVTEGDNATFTCSFSNTSESFVLNWYRMSPSNQTDKLAAFPEDRGQPGQDSRFRVIQLPNGRDFHMSVVRARRNDSGTYLCGAISLAPKVQIKESLRAELRVTERRAE",binds,–
"PD-1 variant polypeptide, clone S6.8.3 (receptor) NPPTFSPALLVVTEGDNATFTCSFSNTSESFVLNWYRMSPSNQTDKLAAFPEDRGQLGQASRFRVTQLPNGRDFHMSVVRARRSDSGTYLCSAILLAPRIQIRESLRVELRVTERRAE",–,binding result [2]: binds
"PD-1 variant polypeptide, clone S6.12.9 (receptor) NPPTFSPALLVVTEGDNATFTCSFSNTSESFVLNWYRMSPSNQTDKLAAFPEDRGQLGQDSRFRVTQLPNGRDFHMSVVRARRSDSGTYLCSAIVLAPRIQIKESLRVELRVTERRAE",–,binding result [2]: binds
"PD-1 variant polypeptide, clone S5.2q (receptor) SPPTLSPALLVVTEGDNVTFTCSFSNTSESFVLNWYRMSPSNQTDKLAAFPEDRGQPGRDSRFRVTQLPNGRDFHMSVVRARRNDSGTYLCGAISLAPKVQIKESLRAELRVTERRAE",binds,–
"PD-1 variant polypeptide, clone S5.1i (receptor) NPPTFSPALLVVTEGDNATFTCSFSNTSESFVLNWYRMSPSNQTDKLAAFPEDRSQPGQDSRFRVTQLPNGRDFRMSVVRARRSDSGTYLCSAISLAPKVQIKESLRAELRVTERRAE",binds,–
"PD-1 variant polypeptide, clone S5.4 (receptor) NPPTFSPALLVVTEGDNATFTCSFSNTSESFVLNWYRMSPSNQTDKLAAFPEDRGQPGRDSRFRVTQLPNGRDFRMSVVRARRSDSGTYLCSAILLAPKIQIKESLGAELRVTEKGAE",–,binding result [4]: binds
"PD-1 variant polypeptide, clone S6.12.6 (receptor, not shown: large carriers) NPPTFSPALLVVTEGDNATFTCSFSNTSESFVLNWYRISPSNQTDKLAAFPEDRGQLGQDSRFRVTQLPNGRDFHMSVVRARRSDSGTYLCSAILLAPRIQIRESLGVELRVTEKRAE",–,binding result [2]: binds

# Now from value to binder, other results behind:
binding result [3],Binder,other results
binds,"PD-1 variant polypeptide, clone S5.1p (receptor) DPPTFSPALLVVTEGDNATFTCSFSNTSESFVLNWYRMSPSNQTDKLAAFPEDRSQPGQDSRFRVTQLPNGRDFHMSVVRARRNDSGTYLCGAILLAPRIQIRESLGAELRVTEKGAE",–
binds,"PD-1 variant polypeptide, clone S5.2s (receptor) NPPTFSPALLVVTEGDNATFTCSFSNTSESFVLNWYRMSPSSQTDKLAAFPEDRSQPGQDSRFRVTQLPNGRDFHMSVVRARRSDSGTYLCGVISLAPKVQIKESLRAELRVIERRAE",–
binds,"PD-1 variant polypeptide, clone S5.1q (receptor) NPPTFSPALLVVTEGDNATFTCSFSNTSESFVLNWYRMSPSNQTDKLAAFPEDRSQLGQDSRFRVTQLPNGRDFHMSVVRARRNDSGTYLCGAISLAPKVQIRESLRVELRVTERRAE",–
binds,"PD-1 variant polypeptide, clone S5.1k (receptor) DPPTFSPALLVVTEGDNATFTCSFSNTSESFVLNWYRMSPSNQTDKLAAFPEDRSQPGQDSRFRVTQLPNGRDFHMSVVRARRDDSGTYLCGAISLAPKIQIKESLRAELRVTERRAE",–
binds,"PD-1 variant polypeptide, clone S5.2i (receptor) NPPTFSPALLVVAEGDNATFTCSFSNTSESFVLNWYRMSPSNQTDKLAAFPEDRSQPGQDRRFRVTQLPSGRDFHMSVVRARRNDSGTYLCGAIFLAPRIQIKESLRAELRVTERRAE",–
binds,"PD-1 variant polypeptide, clones S5.1j, S5.1o (receptor) NPPTFSPALLVVTEGDNATFTCSFSNTSESFVLNWYRMSPSNQTDKLAAFPEDRSQPGQDSRFRVTQLPNGRDFHMSVVRARRNDSGTYLCGAISLAPKVQIKESLRVELRVTERRAE",–
binds,"PD-1 variant polypeptide, clone S5.1f (receptor) NPPTFSPALLVVTEGDNATFTCSFSNTSESFVLNWYRVSPSNQTDKLAAFPEDRSRPGQDSRFRVTRLPNGRDFHMSVVGARRSDSGTYLCGAISLAPKVQIKESLRAELRVTERRAE",–
